{"source": "patent US20070021595A1", "binders": {"B1": {"name": "chimeric antibody chKR127 (wild type) (antibody, V domains shown)", "VH": "QVQLVQSGAEVKAPGASVKVSCKASGYTFTSAWMNWVRQAPGQGLEWMGRIYPSGGSTSYAQKFQGRVTMTADKSTSTVYMELSSLRSEDTAVYYCAREYRVARWGQGTLVTVSA", "VL": "DIVMTQTPLSLSVTPGQPASISCKSSQSLLYSNGKTYLNWLLQKPGQPPQRLIYLVSNRDSGVPDRFSGSGSGTDFTLKISRVEAEDVGVYYCVQGTHFPQTFGGGTKVEIK"}, "B2": {"name": "humanized antibody of humanized heavy chain HuKR127HC (HuKR127VH-VII) and humanized antibody HZKR127I light chain (antibody, part only; not given: Light chain, V domains shown, part only)", "VH": "B1 VH"}, "B3": {"name": "humanized antibody HuKR127 (antibody, V domains shown)", "VH": "B1 VH", "VL": "B1 VL"}}, "key": {"[1]": {"biological_target": "HBV recombinant antigen GST-pre-S1(1-56) (hepatitis B virus)", "experiment": "competitive ELISA, GST-pre-S1(1-56) on plate, COS7 supernatant"}, "[2]": {"biological_target": "HBV recombinant antigen GST-pre-S1(1-56) (hepatitis B virus)", "experiment": "competitive ELISA, pre-S1 antigen in solution and on plate"}, "[3]": {"biological_target": "HBV recombinant antigen GST-pre-S1(1-56) (hepatitis B virus)", "experiment": "competitive ELISA as in Test Example 2"}, "[4]": {"biological_target": "HBV recombinant antigen GST-pre-S1(1-56) (hepatitis B virus)", "experiment": "competitive ELISA as in Test Example 2, purified antibody from CHO cells"}}}
{"binder": "B1", "values": [{"measurement": "Kd", "setting": "[1]", "result": 11, "unit": "nM"}, {"measurement": "Kd", "setting": "[2]", "result": 8.2, "unit": "nM"}]}
{"binder": "B2", "values": [{"measurement": "Kd", "setting": "[3]", "result": 0.15, "unit": "nM"}, {"measurement": "fold higher affinity than HZKR127I", "setting": "[3]", "result": 50, "unit": "fold"}]}
{"binder": "B3", "values": [{"measurement": "Kd", "setting": "[4]", "result": 0.16, "unit": "nM"}, {"measurement": "fold higher affinity than the control group", "setting": "[4]", "result": 50, "unit": "fold"}]}
